Consider twelve molecules from US20180142030A1 (Bristol-Myers Squibb, published 2018).

Substitutions are numbered along the chain they refer to. Names and notes keep the numbering of the source.

The chains are these.
T1: FcγRIIb (human, UniProt P31994 43-217, limits assumed)
T1 construct: Construct not described; also called hCD32b/FcγRIIb
T1 sequence (looked up): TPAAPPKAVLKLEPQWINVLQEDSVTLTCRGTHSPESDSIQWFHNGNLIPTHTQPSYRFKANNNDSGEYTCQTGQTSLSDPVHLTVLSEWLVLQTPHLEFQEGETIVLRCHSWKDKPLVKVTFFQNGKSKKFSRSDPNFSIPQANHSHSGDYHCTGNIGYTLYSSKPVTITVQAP

T2: FcγRIIa-R131 (human, UniProt P12318 34-218, limits assumed)
T2 construct: Construct not described
T2 sequence (looked up): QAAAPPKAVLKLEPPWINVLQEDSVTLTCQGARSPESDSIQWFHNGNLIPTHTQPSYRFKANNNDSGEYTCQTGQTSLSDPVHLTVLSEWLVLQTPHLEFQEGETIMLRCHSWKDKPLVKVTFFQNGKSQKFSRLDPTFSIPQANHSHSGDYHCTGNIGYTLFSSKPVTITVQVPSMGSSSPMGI

T3: FcγRIIa-H131 (human, UniProt P12318 34-218, limits assumed)
T3 construct: Construct not described; also called hCD32a/FcγRIIa-H131
T3 sequence (looked up): T2 sequence (looked up) with R134H

B1: 5F11 (parental) (antibody, V domains shown)
VH: QVQLQQSAAELARPGASVKMSCKASGYTFTDLSMHWIKQRPGQGLEWIGYITPSSGYTAYNQKFKGKTTLTADKSSSTAYMQLSSLTSEDSAVYYCARLILQRGAYWGQGTLVTVSA
VL: DIVLTQSPASLAVSLGQRATISCRASKNVDSYGNSFMHWYQQKPGQPPKLLIYRASNLESGIPARFGGSGSGTDFTLTINPVEADDVATYYCQQSNEDPLTFGAGTKLELK
notes: Mouse variable domains; also called 1802.3717.5F11.A11.E7; mAb 5F11
B2: 5F11-45 V9 (antibody, human IgG1, kappa)
heavy: QVQLVQSGAEVKKPGSSVKVSCKASGYTFTDLSMHWVRQAPGQGLEWMGYITPSSGYTAYNQKFKGKTTLTADKSTSTAYMELSSLRSEDTAVYYCARLILQRGAYWGQGTLVTVSSASTKGPSVFPLAPSSKSTSGGTAALGCLVKDYFPEPVTVSWNSGALTSGVHTFPAVLQSSGLYSLSSVVTVPSSSLGTQTYICNVNHKPSNTKVDKRVEPKSCDKTHTCPPCPAPELLGDDSVFLFPPKPKDTLMISRTPEVTCVVVDVSHEDGEVKFNWYVDGVEVHNAKTKPREEQYNSTYRVVSVLTVLHQDWLNGKEYKCKVSNKALPRPIEKTISKAKGQPREPQVYTLPPSREEMTKNQVSLTCLVKGFYPSDIAVEWESNGQPENNYKTTPPVLDSDGSFFLYSKLTVDKSRWQQGNVFSCSVMHEALHNHYTQKSLSLSPG
light: DIVLTQSPDSLAVSLGERATINCRASKNVDSYGNSFMHWYQQKPGQPPKLLIYRASNLESGVPDRFSGSGSGTDFTLTISSLQAEDVAVYYCQQSNEDPLTFGQGTKLEIKRTVAAPSVFIFPPSDEQLKSGTASVVCLLNNFYPREAKVQWKVDNALQSGNSQESVTEQDSKDSTYSLSSTLTLSKADYEKHKVYACEVTHQGLSSPVTKSFNRGEC
B3: 5F11-45-V9-DQ-sup (antibody, human IgG1, kappa)
heavy chain: B2 heavy with D270Q
light chain: B2 light
notes: Tested as supernatant of antibody-producing cells; also called 5F11-45 V9 D270Q
B4: 5F11-45-V9-DS-sup (antibody, human IgG1, kappa)
heavy chain: B2 heavy with D270S
light chain: B2 light
notes: Tested as supernatant of antibody-producing cells; also called 5F11-45 V9 D270S
B5: 5F11-45-V9-DA-sup (antibody, human IgG1, kappa)
heavy chain: B2 heavy with D270A
light chain: B2 light
notes: Tested as supernatant of antibody-producing cells; also called 5F11-45 V9 D270A
B6: 5F11-45 V9 D270E (antibody, human IgG1, kappa)
heavy: B2 heavy with D270E
light: B2 light
B7: 5F11-45 V4 (antibody, human IgG1, kappa)
heavy: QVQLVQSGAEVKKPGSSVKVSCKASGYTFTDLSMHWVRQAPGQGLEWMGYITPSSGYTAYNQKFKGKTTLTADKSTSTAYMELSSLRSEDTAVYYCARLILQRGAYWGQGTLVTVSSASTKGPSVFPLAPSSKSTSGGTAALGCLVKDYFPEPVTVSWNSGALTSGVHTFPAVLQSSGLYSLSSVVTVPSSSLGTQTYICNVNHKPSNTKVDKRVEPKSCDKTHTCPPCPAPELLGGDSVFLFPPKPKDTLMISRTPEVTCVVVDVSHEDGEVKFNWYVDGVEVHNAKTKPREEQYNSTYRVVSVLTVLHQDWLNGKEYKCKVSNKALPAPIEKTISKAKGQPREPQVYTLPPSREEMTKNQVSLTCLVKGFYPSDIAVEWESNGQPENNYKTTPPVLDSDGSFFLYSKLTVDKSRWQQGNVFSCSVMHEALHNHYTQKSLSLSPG
light: B2 light
B8: 12D6-24 V4 (antibody, human IgG1, kappa)
heavy: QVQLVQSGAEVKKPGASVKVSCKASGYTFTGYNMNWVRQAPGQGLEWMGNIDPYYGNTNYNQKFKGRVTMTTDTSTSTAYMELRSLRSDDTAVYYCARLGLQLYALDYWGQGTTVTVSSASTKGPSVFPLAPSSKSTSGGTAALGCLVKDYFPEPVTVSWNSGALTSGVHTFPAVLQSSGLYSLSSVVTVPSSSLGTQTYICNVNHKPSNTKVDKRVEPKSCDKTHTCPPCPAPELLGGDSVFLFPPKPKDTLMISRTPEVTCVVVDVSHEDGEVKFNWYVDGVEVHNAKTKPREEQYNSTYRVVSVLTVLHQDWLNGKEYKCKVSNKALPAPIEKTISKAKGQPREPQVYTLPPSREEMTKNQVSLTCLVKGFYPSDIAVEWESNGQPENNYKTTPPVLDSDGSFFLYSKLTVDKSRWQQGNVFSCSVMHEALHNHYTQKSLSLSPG
light: DIVMTQTPLSLPVTPGEPASISCRSSQSLVHSNANTYLHWYLQKPGQSPQLLIYKLTNRFFGVPDRFSGSGSGTDFTLKISRVEAEDVGVYYCSQSIHVPWTFGGGTKVEIKRTVAAPSVFIFPPSDEQLKSGTASVVCLLNNFYPREAKVQWKVDNALQSGNSQESVTEQDSKDSTYSLSSTLTLSKADYEKHKVYACEVTHQGLSSPVTKSFNRGEC
B9: 12D6-24 V9 D270E (antibody, human IgG1, kappa)
heavy: QVQLVQSGAEVKKPGASVKVSCKASGYTFTGYNMNWVRQAPGQGLEWMGNIDPYYGNTNYNQKFKGRVTMTTDTSTSTAYMELRSLRSDDTAVYYCARLGLQLYALDYWGQGTTVTVSSASTKGPSVFPLAPSSKSTSGGTAALGCLVKDYFPEPVTVSWNSGALTSGVHTFPAVLQSSGLYSLSSVVTVPSSSLGTQTYICNVNHKPSNTKVDKRVEPKSCDKTHTCPPCPAPELLGDDSVFLFPPKPKDTLMISRTPEVTCVVVDVSHEEGEVKFNWYVDGVEVHNAKTKPREEQYNSTYRVVSVLTVLHQDWLNGKEYKCKVSNKALPRPIEKTISKAKGQPREPQVYTLPPSREEMTKNQVSLTCLVKGFYPSDIAVEWESNGQPENNYKTTPPVLDSDGSFFLYSKLTVDKSRWQQGNVFSCSVMHEALHNHYTQKSLSLSPG
light: B8 light
B10: 12D6-24-V9-DS-sup (antibody)
heavy: B9 heavy with E272S
light: B8 light
notes: Tested as supernatant of antibody-producing cells; also called 12D6-24 V9 D270S; copies: 2 + 2
B11: 12D6-24-V9-DA-sup (antibody)
heavy: B9 heavy with E272A
light: B8 light
notes: Tested as supernatant of antibody-producing cells; also called 12D6-24 V9 D270A; copies: 2 + 2
B12: 12D6-24-V9-DQ-sup (antibody)
heavy: B9 heavy with E272Q
light: B8 light
notes: Tested as supernatant of antibody-producing cells; also called 12D6-24 V9 D270Q; copies: 2 + 2

T4 sequence (P25942 21-193 limits assumed): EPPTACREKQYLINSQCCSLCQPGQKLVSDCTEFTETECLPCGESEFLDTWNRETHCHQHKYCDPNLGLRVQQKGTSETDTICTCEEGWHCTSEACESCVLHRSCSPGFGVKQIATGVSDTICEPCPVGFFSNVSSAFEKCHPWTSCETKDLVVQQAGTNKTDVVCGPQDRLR

The first experiment concerns the target T4, recombinant human CD40 monomer (human, UniProt P25942 21-193).
T4 construct: also called huCD40-monomer; soluble human CD40
As to the kind of experiment: BLI (Octet RED); antibody supernatant captured on protein A sensors, huCD40-monomer in solution. The source says: The closest matching human germline region sequence was selected for each mouse variable domain, and these human framework regions were used to replace murine frameworks in the “CDR graft” versions of the antibodies. Additional amino acid substitutions, such as framework back-mutations, were then made as necessary to restore the binding affinity of the humanized antibody. Further amino acid substitutions were made to eliminate sequence liabilities. The sequence relationships between the various forms of the antibodies of the present invention are provided at Table 6. The binding of various agonistic anti-huCD40 antibodies to soluble human CD40 was determined by Biolayer Interferometry (BLI) analysis using a Fortebio Octet RED (Rapid system—Extended Detection) label-free interaction analysis instrument. All studies were performed in 10 mM NaₓPO₄, 130 mM NaCl, 0.05% Surfactant P20 (pH 7.1) at 25° C. Briefly, anti-huCD40 antibody supernatants (diluted to 10 μg/ml or captured undiluted if supernatant concentration was less than 10 μg/ml) were captured on protein A coated biosensors (Pall Fortebio #18-5010) using a loading time of 90 s and shake speed of 1000 rpm. Supernatants were first screened for binding to 1 μM recombinant human CD40 monomer (huCD40-monomer) using 180 s association and dissociation times, at 1000 rpm, with two 15 s conditioning steps using 10 mM glycine pH 1.5 in between binding cycles.
By Kd is commonly meant the equilibrium constant for the complex coming apart. Take B1: the Kd came out at 4.7 nM.

The next experiment has as its target T4, recombinant human CD40 monomer. As to the kind of experiment: BLI (Octet RED); run in parallel with 5F11-45. For orientation: Biolayer interferometry detects binding as a change in optical thickness at a sensor tip.
Regarding B1, the Kd is 8.2 nM.

The next experiment deals with T1, FcγRIIb. As to the kind of experiment: BLI (ForteBio Octet), %Rmax at 1 µM hCD32b/FcγRIIb. The protocol: (§1) See Example 8. Antibody names including “-sup” represent supernatants from antibody producing cells, whereas others are purified antibodies. Data are presented as percentages of a maximum receptor binding value for each combination of antibody and receptor, as measured in a ForteBio Octet system. See, e.g., Example 3. Each cluster of three bars represents, from left to right, binding to hCD32a/FcγRIIa-H131 (10 μM) (hatched bars), […] (10 μM) (black bars), and hCD32b/FcγRIIb (1 μM) (white bars).
(§2) Supernatants were obtained from cells expressing these antibodies and assayed for binding to hCD32/FcγRII. Selected purified antibodies without mutations at position 270 were used as controls.
With B2, the binding result is listed as “binds”.

Turning to B3, the binding result is reported as “binds”.

For B4, the binding result is “binds”.

For B5, the binding result is on record as “binds”.

Turning to B6, the binding result is given as “binds”.

B7: the binding result is “binds”.

As to B8, the binding result is on record as “binds”.

As for B9, the binding result is “binds”.

For B10, the binding result is reported as “binds”.

B11: the binding result is listed as “binds”.

B12: the binding result is “binds”.

A further experiment addresses T2, FcγRIIa-R131. Briefly: BLI (ForteBio Octet), %Rmax at 10 µM FcγRIIa-R131 (CD32a-R131 on the sheet). The procedure: as §1, §2
As for B2, the binding result is recorded as “binds”.

Regarding B3, the binding result is given as “binds”.

Consider B4, for which the binding result is listed as “binds”.

B5: the binding result is listed as “binds”.

For the molecule B6, the binding result is reported as “binds”.

B7: the binding result is “binds”.

Take B8: the binding result was “binds”.

B9: the binding result was “binds”.

B10: the binding result is “binds”.

As for B11, the binding result was “binds”.

With B12, the binding result is given as “binds”.

The next experiment concerns the target T3, FcγRIIa-H131. As to the kind of experiment: BLI (ForteBio Octet), %Rmax at 10 µM hCD32a/FcγRIIa-H131. The procedure: as §1, §2
On to B2, for which the binding result is “binds”.

For the molecule B3, the binding result was “binds”.

For B4, the binding result is reported as “binds”.

Take B5: the binding result is reported as “binds”.

As for B6, the binding result is “binds”.

Turning to B7, the binding result is given as “binds”.

With B9, the binding result is listed as “binds”.

In the case of B10, the binding result is reported as “binds”.

Take B11: the binding result is on record as “binds”.

As to B12, the binding result is recorded as “binds”.

A further experiment concerns the target T3, FcγRIIa-H131. As to the kind of experiment: BLI (ForteBio Octet), % of maximum receptor binding (%Rmax) at 10 µM hCD32a/FcγRIIa-H131. The procedure: as §1, §2
For the molecule B8, the binding result is given as “binds”.
